B1: F11 IgA1 polymer (antibody, V domains shown)
VH: QVQLVQSGAEVKRPGSSVRVSCRTSGGSFTSFAISWVRQAPGQGLEWMGRITRILGVPNYAQKFQGRVTITADMPTTTAYLDLTNLRSEDTAVYYCARDSGTSHGDFDYWGQGTLVTVSS
VL: EIVLTQSPVTLSLSPGERATLSCRASQNVINSLVWYQQKPGQAPRLLIYGASNRATGIPARFRGSGSGTDFTLTIDSLEPEDIAVYYCQQRGTWLWSFGQGTKVEIK
B2: F11 IgA2m2 monomer (antibody, V domains shown)
VH: B1 VH
VL: B1 VL
B3: F11 IgA1 monomer (antibody, V domains shown)
VH: B1 VH
VL: B1 VL
B4: F11 IgA2m2 polymer (antibody, V domains shown)
VH: B1 VH
VL: B1 VL

Molecular target: recombinant trimeric HA of A/Puerto Rico/8/1934 (H1N1) (influenza A virus A/Puerto Rico/8/1934 …, UniProt P03452)
Sequence (P03452 18-528): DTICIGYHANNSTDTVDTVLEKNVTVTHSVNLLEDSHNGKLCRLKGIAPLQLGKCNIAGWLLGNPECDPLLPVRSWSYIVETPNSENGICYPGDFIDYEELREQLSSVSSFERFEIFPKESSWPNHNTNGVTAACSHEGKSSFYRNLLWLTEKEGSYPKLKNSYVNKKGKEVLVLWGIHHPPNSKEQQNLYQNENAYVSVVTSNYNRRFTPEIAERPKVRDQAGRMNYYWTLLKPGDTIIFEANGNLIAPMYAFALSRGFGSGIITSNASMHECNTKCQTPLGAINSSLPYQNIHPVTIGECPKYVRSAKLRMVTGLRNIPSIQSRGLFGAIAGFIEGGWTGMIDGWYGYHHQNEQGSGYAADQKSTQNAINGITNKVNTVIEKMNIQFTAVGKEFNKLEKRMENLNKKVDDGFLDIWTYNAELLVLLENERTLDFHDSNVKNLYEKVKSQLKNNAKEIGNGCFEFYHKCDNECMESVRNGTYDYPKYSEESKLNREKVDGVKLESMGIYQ
Test: cell-based or functional assay

Binder | HI activity, minimum HI concentration, PR8 virus | NI activity, EC50 (NI-ELLA), PR8 virus | NT activity, minimum virus-neutralizing concentration, PR8 virus
B1 | 500 µg/mL | 0.222 µg/mL | 25 µg/mL
B2 | 500 µg/mL | 0.683 µg/mL | 89.1 µg/mL
B3 | 354 µg/mL | 0.301 µg/mL | 50 µg/mL
B4 | 500 µg/mL | 0.418 µg/mL | 50 µg/mL
